Test results: US20110263454A1, “Methods of Identifying Functional Characteristics of Promoters, Transcription Modifying Proteins and Transcription Modulating Agents” (Salk Institute for Biological Studies, priority 2008, published 2011)

B1: RXRb: Retinoic X Receptor β (NR2B2), cDNA driver (protein, UniProt P28702 1-533, looked up)
Retinoic acid receptor …: MSWAARPPFLPQRHAAGQCGPVGVRKEMHCGVASRWRRRRPWLDPAAAAAAAVAGGEQQTPEPEPGEAGRDGMGDSGRDSRSPDSSSPNPLPQGVPPPSPPGPPLPPSTAPSLGGSGAPPPPPMPPPPLGSPFPVISSSMGSPGLPPPAPPGFSGPVSSPQINSTVSLPGGGSGPPEDVKPPVLGVRGLHCPPPPGGPGAGKRLCAICGDRSSGKHYGVYSCEGCKGFFKRTIRKDLTYSCRDNKDCTVDKRQRNRCQYCRYQKCLATGMKREAVQEERQRGKDKDGDGEGAGGAPEEMPVDRILEAELAVEQKSDQGVEGPGGTGGSGSSPNDPVTNICQAADKQLFTLVEWAKRIPHFSSLPLDDQVILLRAGWNELLIASFSHRSIDVRDGILLATGLHVHRNSAHSAGVGAIFDRVLTELVSKMRDMRMDKTELGCLRAIILFNPDAKGLSNPSEVEVLREKVYASLETYCKQKYPEQQGRFAKLLLRLPALRSIGLKCLEHLFFFKLIGDTPIDTFLMEMLEAPHQLA
B2: PPARd: Peroxisome proliferator activated receptor δ (NR1C2), cDNA driver (protein, UniProt Q03181 1-441, looked up)
Peroxisome …: MEQPQEEAPEVREEEEKEEVAEAEGAPELNGGPQHALPSSSYTDLSRSSSPPSLLDQLQMGCDGASCGSLNMECRVCGDKASGFHYGVHACEGCKGFFRRTIRMKLEYEKCERSCKIQKKNRNKCQYCRFQKCLALGMSHNAIRFGRMPEAEKRKLVAGLTANEGSQYNPQVADLKAFSKHIYNAYLKNFNMTKKKARSILTGKASHTAPFVIHDIETLWQAEKGLVWKQLVNGLPPYKEISVHVFYRCQCTTVETVRELTEFAKSIPSFSSLFLNDQVTLLKYGVHEAIFAMLASIVNKDGLLVANGSGFVTREFLRSLRKPFSDIIEPKFEFAVKFNALELDDSDLALFIAAIILCGDRPGLMNVPRVEAIQDTILRALEFHLQANHPDAQYLFPKLLQKMADLRQLVTEHAQMMQRIKKTETETSLHPLLQEIYKDMY
B3: CAR: Constitutive Androstane Receptor (NR1I3), cDNA driver (protein, UniProt Q14994 1-352, looked up)
Nuclear receptor subfamily 1 …: MASREDELRNCVVCGDQATGYHFNALTCEGCKGFFRRTVSKSIGPTCPFAGSCEVSKTQRRHCPACRLQKCLDAGMRKDMILSAEALALRRAKQAQRRAQQTPVQLSKEQEELIRTLLGAHTRHMGTMFEQFVQFRPPAHLFIHHQPLPTLAPVLPLVTHFADINTFMVLQVIKFTKDLPVFRSLPIEDQISLLKGAAVEICHIVLNTTFCLQTQNFLCGPLRYTIEDGARVSPTVGFQVEFLELLFHFHGTLRKLQLQEPEYVLLAAMALFSPDRPGVTQRDEIDQLQEEMALTLQSYIKGQQRRPRDRFLYAKLLGLLAELRSINEAYGYQIQHIQGLSAMMPLLQEICS
B4: RARg: Retinoic acid receptor γ (NR1B3), nuclear hormone receptor cDNA driver (protein, UniProt P13631 1-454, looked up)
Retinoic acid receptor gamma: MATNKERLFAAGALGPGSGYPGAGFPFAFPGALRGSPPFEMLSPSFRGLGQPDLPKEMASLSVETQSTSSEEMVPSSPSPPPPPRVYKPCFVCNDKSSGYHYGVSSCEGCKGFFRRSIQKNMVYTCHRDKNCIINKVTRNRCQYCRLQKCFEVGMSKEAVRNDRNKKKKEVKEEGSPDSYELSPQLEELITKVSKAHQETFPSLCQLGKYTTNSSADHRVQLDLGLWDKFSELATKCIIKIVEFAKRLPGFTGLSIADQITLLKAACLDILMLRICTRYTPEQDTMTFSDGLTLNRTQMHNAGFGPLTDLVFAFAGQLLPLEMDDTETGLLSAICLICGDRMDLEEPEKVDKLQEPLLEALRLYARRRRPSQPYMFPRMLMKITDLRGISTKGAERAITLKMEIPGPMPPLIREMLENPEMFEDDSSQPGPHPNASSEDEVPGGQGKGGLKSPA
B5: PXR: Pregnane X Receptor (NR1I2), cDNA driver (protein, UniProt O75469 1-434, looked up)
Nuclear receptor subfamily 1 …: MEVRPKESWNHADFVHCEDTESVPGKPSVNADEEVGGPQICRVCGDKATGYHFNVMTCEGCKGFFRRAMKRNARLRCPFRKGACEITRKTRRQCQACRLRKCLESGMKKEMIMSDEAVEERRALIKRKKSERTGTQPLGVQGLTEEQRMMIRELMDAQMKTFDTTFSHFKNFRLPGVLSSGCELPESLQAPSREEAAKWSQVRKDLCSLKVSLQLRGEDGSVWNYKPPADSGGKEIFSLLPHMADMSTYMFKGIISFAKVISYFRDLPIEDQISLLKGAAFELCQLRFNTVFNAETGTWECGRLSYCLEDTAGGFQQLLLEPMLKFHYMLKKLQLHEEEYVLMQAISLFSPDRPGVLQHRVVDQLQEQFAITLKSYIECNRPQPAHRFLFLKIMAMLTELRSINAQHTQRLLRIQDIHPFATPLMQELFGITGS
B6: FXR: Farnesoid X Receptor (NR1H4), cDNA driver (protein, UniProt Q96RI1 1-486, looked up)
Bile acid receptor: MVMQFQGLENPIQISPHCSCTPSGFFMEMMSMKPAKGVLTEQVAGPLGQNLEVEPYSQYSNVQFPQVQPQISSSSYYSNLGFYPQQPEEWYSPGIYELRRMPAETLYQGETEVAEMPVTKKPRMGASAGRIKGDELCVVCGDRASGYHYNALTCEGCKGFFRRSITKNAVYKCKNGGNCVMDMYMRRKCQECRLRKCKEMGMLAECMYTGLLTEIQCKSKRLRKNVKQHADQTVNEDSEGRDLRQVTSTTKSCREKTELTPDQQTLLHFIMDSYNKQRMPQEITNKILKEEFSAEENFLILTEMATNHVQVLVEFTKKLPGFQTLDHEDQIALLKGSAVEAMFLRSAEIFNKKLPSGHSDLLEERIRNSGISDEYITPMFSFYKSIGELKMTQEEYALLTAIVILSPDRQYIKDREAVEKLQEPLLDVLQKLCKIHQPENPQHFACLLGRLTELRTFNHHHAEMLMSWRVNDHKFTPLLCEIWDVQ

system: mPgc1b promoter; assay: NHR-promoter luciferase screen, mPgc1b promoter; assay type: cell-based, mouse; settings: PGC1b promoter reporter; co-transfected HR, without or with its ligand
Outline: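 CV-1 cells co-transfected with NHR homodimer or NHR/RXR heterodimer (pcDNA3.1, C-terminal V5H6 tag), promoter-luciferase construct and LacZ transfection control. Orphan receptors screened without ligand. Luciferase normalized to LacZ and to no-NHR/no-ligand control.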

| Molecule | Luc. act., normalized to lacZ |
| --- | --- |
| B1 | 11.7 |
| B2 | 7.88 |
| B3 | 9.21 |
| B4 | 12.70 |
| B5 | 10.19 |
| B6 | 7.82 |

same assay, conditions: PGC1b promoter reporter; co-transfected HR, without or with its ligand; relative to control

| Molecule | Normalized Luc. act., normalized to control |
| --- | --- |
| B1 | 1.0 |
| B2 | 0.7 |
| B3 | 0.8 |
| B4 | 1.1 |
| B5 | 0.9 |
| B6 | 0.7 |

same assay, conditions: mPgc1b promoter-luciferase, CV-1 cells, NHR +/- ligand, control = 1.00

| Molecule | luciferase activity normalized to lacZ activity and to a control, mPgc1b |
| --- | --- |
| B1 | 0.99 |
| B2 | 0.67 |
| B3 | 0.78 |
| B4 | 1.07 |
| B5 | 0.86 |
| B6 | 0.66 |

system: hIFNg promoter; assay: NHR-promoter luciferase screen, hIFNg promoter; assay type: cell-based, human; settings: IFNg promoter; HR component without or with ligand
Outline: (§1)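 CV-1 cells were co-transfected with 50 ng NHR (homodimer or NHR/RXR heterodimer), 100 ng promoter-luciferase construct and 50 ng LacZ. Luciferase was normalized to LacZ and to a no-NHR/no-ligand control.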

| Molecule | Luc. act., normalized to lacZ | Normalized Luc. act., normalized to control |
| --- | --- | --- |
| B1 | 20.0 | 1.3 |
| B2 | 19.72 | 1.2 |
| B3 | 19.0 | 1.2 |
| B4 | 22.8 | 1.4 |
| B5 | 23.93 | 1.5 |
| B6 | 17.12 | 1.1 |

same assay, conditions: transcription factor +/- ligand; control = 1.00

| Molecule | hIFNg promoter reporter activity |
| --- | --- |
| B1 | 1.26 |
| B2 | 1.24 |
| B3 | 1.19 |
| B4 | 1.43 |
| B5 | 1.50 |
| B6 | 1.08 |

system: mAdiponectin promoter; assay: NHR-promoter luciferase screen, mAdiponectin promoter; assay type: cell-based, mouse; settings: Adiponectin; HR component without or with its ligand
Outline: as §1

| Molecule | Luc. act., normalized to lacZ | Normalized Luc. act., normalized to control |
| --- | --- | --- |
| B1 | 71.8 | 1.1 |
| B2 | 89.4 | 1.4 |
| B3 | 46.8 | 0.7 |
| B4 | 62.6 | 1.0 |
| B5 | 97.1 | 1.5 |
| B6 | 62.6 | 1.0 |

same assay, conditions: transcription factor +/- ligand; control = 1.00

| Molecule | mAdiponectin promoter reporter activity |
| --- | --- |
| B1 | 1.14 |
| B2 | 1.42 |
| B3 | 0.74 |
| B4 | 1.00 |
| B5 | 1.55 |
| B6 | 1.00 |

system: mPOMC promoter; assay: NHR-promoter luciferase screen, mPOMC promoter; assay type: cell-based, mouse; settings: Table 6d; luciferase activity relative to control (control = 1.00)
Outline: as §1

| Molecule | Results of assays of transcription factor (+/- ligand) with mPOMC |
| --- | --- |
| B1 | 1.19 |
| B2 | 1.02 |
| B3 | 0.92 |
| B4 | 1.53 |
| B5 | 1.30 |
| B6 | 1.20 |

same assay, conditions: mPOMC promoter; HR component with or without ligand

| Molecule | Luc. act., normalized to lacZ |
| --- | --- |
| B1 | 81.8 |
| B2 | 70.0 |
| B3 | 63.8 |
| B4 | 105.9 |
| B5 | 89.4 |
| B6 | 82.5 |

same assay, conditions: mPOMC promoter; HR component with or without ligand; relative to control

| Molecule | Normalized Luc. act., normalized to control |
| --- | --- |
| B1 | 1.2 |
| B2 | 1.0 |
| B3 | 0.9 |
| B4 | 1.5 |
| B5 | 1.3 |
| B6 | 1.2 |

system: mDio1 promoter; assay: NHR-promoter luciferase screen, mDio1 promoter; assay type: cell-based, mouse; settings: Dio1; HR component without or with its ligand
Outline: as §1

| Molecule | Luc. act., normalized to lacZ | Normalized Luc. act., normalized to control |
| --- | --- | --- |
| B1 | 4.4 | 1.0 |
| B2 | 10.0 | 2.2 |
| B3 | 4.5 | 1.0 |
| B4 | 7.2 | 1.6 |
| B5 | 11.3 | 2.5 |
| B6 | 7.2 | 1.6 |

same assay, conditions: transcription factor +/- ligand; control = 1.00

| Molecule | mDio1 promoter reporter activity |
| --- | --- |
| B1 | 0.99 |
| B2 | 2.23 |
| B3 | 1.01 |
| B4 | 1.61 |
| B5 | 2.52 |
| B6 | 1.62 |

system: hTNFa promoter; assay: NHR-promoter luciferase screen, hTNFa promoter; assay type: cell-based, human; settings: TNFa promoter; HR component without or with ligand
Outline: as §1

| Molecule | Luc. act., normalized to lacZ | Normalized Luc. act., normalized to control |
| --- | --- | --- |
| B1 | 1036.3 | 1.1 |
| B2 | 1138.3 | 1.2 |
| B3 | 908.2 | 0.9 |
| B4 | 1458.6 | 1.5 |
| B5 | 1152.4 | 1.2 |
| B6 | 974.6 | 1.0 |

same assay, conditions: transcription factor +/- ligand; control = 1.00

| Molecule | hTNFa promoter reporter activity |
| --- | --- |
| B1 | 1.05 |
| B2 | 1.16 |
| B3 | 0.92 |
| B4 | 1.48 |
| B5 | 1.17 |
| B6 | 0.99 |
